Data from publication PMC2063517, “Leptospira interrogans Endostatin-Like Outer Membrane Proteins Bind Host Fibronectin, Laminin and Regulators of Complement” (PLoS ONE, 2007).

Assays:
murine laminin (murine) [1] = experiment: ELISA; 1 µg murine laminin immobilised in microtiter wells, soluble LenA or LenB added in PBS-based binding buffer, detected by anti-polyhistidine; Kd = concentration of Len protein giving half-maximal binding; in some experiments additional NaCl or porcine heparin in the buffer (heparin also preincubated with laminin)
murine laminin (murine) [2] = experiment: ELISA; data not shown: laminin immobilised, 1 µM LenB with 1 µM or 4 µM heparin in the binding buffer
[3] = molecular target: 30-kDa amino-terminal domain of fibronectin (human); experiment: ELISA; human plasma fibronectin or its proteolytic fragments (70 kDa, 30 kDa NTD, 45 kDa GBD) immobilised in wells, soluble LenA or LenB added, detected by anti-polyhistidine; Kd = concentration of Len protein giving half-maximal binding
[4] = molecular target: human plasma fibronectin (intact) (human); experiment: as above; settings: both partners purified

## recombinant LenA (leptospiral endostatin-like protein A), L. interrogans serovar Lai (from UniProt Q8F863 1-240) (natural protein)
Murine laminin (murine) [1]
  binding of 1 µM LenA with 1 µM heparin, percent of the no-heparin control: 26%
  percent reduction of binding at 200 mM NaCl against 150 mM NaCl: 49%
  percent reduction of binding at 500 mM NaCl against 150 mM NaCl: 60%

## recombinant LenB, L. interrogans serovar Bratislava (from UniProt A8SKK5 1-236) (natural protein)
Murine laminin (murine) [2]
  binding of 1 µM LenB with 1 µM heparin, percent of the no-heparin control: 75%
  binding of 1 µM LenB with 4 µM heparin, percent of the no-heparin control: 55%
Murine laminin (murine) [1]
  Kd: 118 nM
  binding of 0.25 µM LenB with 50 µM heparin (laminin preincubated with 50 µM heparin), percent of the no-heparin control: 25%
  percent inhibition of binding at 200 mM NaCl against 150 mM NaCl: 40%
  percent inhibition of binding at 500 mM NaCl against 150 mM NaCl: 79%
[3]
  Kd: 69.5 nM

B1: recombinant LenB, L. interrogans serovar Bratislava (natural protein)
chain: MFKNIFLIFLTGSVVCILWSCGDKKEEDNSDLLLFLLNSLGSSNSAASTVVTSCKDASFCRTFVATNNGAGYDGNLGGISGADAKCAAAKSSNLTGTYKALLAAMGTREAVFVGDGSTRLVDWVLYPNKQYRRSDGTTTTFTTNANSVVTANLQNSVDVGAEKFYWIGVGNQPATFDWEVSLNCNDWNSNNAVNFAIDGTTSSNEVFAGDGATPGGAFGSHNTGCNIRLNLLCVEQ
notes: Made with the vector pET200 (Invitrogen); source: E. coli, inclusion bodies, purified in 8M urea (MagneHis nickel beads), dialyzed against PBS; dissolved into PBS after 2-3 days at 4°C
[4]
  Kd: 106 nM
